Results on 51 substances are retold here after patent US20210238260A1.

The first assay deals with Antithrombin III (ATIII) (human) (UniProt P01008). Kind of assay: inhibition of FIXa by ATIII, residual FIXa activity; heparin not given.
Consider “BeneFIX Coagulation Factor IX (Recombinant) (activated, FIXa) (from UniProt P00740 47-191; P00740 227-461) (enzyme)”, for which the ATIII Kapp (second-order rate constant of inhibition) is 1.6e+07 M⁻¹ s⁻¹. On to “FIX of SEQ ID NO: 394, with the replacements R318Y/R338E/T343R (activated, FIXa) (from UniProt P00740 47-191; P00740 227-461) (enzyme)”, for which the ATIII Kapp (second-order rate constant of inhibition) turned out to be 1.1e+06 M⁻¹ s⁻¹. For “WT-recombinant FIX (native amino-acid sequence, made in the Sponsor's laboratory; activated, FIXa) (from UniProt P00740 47-191; P00740 227-461) (enzyme)”, the ATIII Kapp (second-order rate constant of inhibition) was found to be 2.4e+07 M⁻¹ s⁻¹.

The next assay addresses plasma purified human antithrombin III (AT-III), in complex with unfractionated heparin (UFH) (human) (UniProt P01008). Description: inhibition of FIXa by AT-III/UFH, residual activity on Mesyl-D-CHG-Gly-Arg-AMC, pseudo-first-order.
Turning to “FIXa-K228N/K247N/N249S/R318Y/R338E/T343R/E410N (from UniProt P00740 47-191; P00740 227-461) (enzyme)”, the kapp (apparent second-order rate constant for inhibition) was found to be 630000 M⁻¹ s⁻¹. On the same count and under the same terms, for “FIXa-K228N/K247N/N249S/R318Y/R338E/T343R/R403E (from UniProt P00740 47-191; P00740 227-461) (enzyme)” the value was 1000 M⁻¹ s⁻¹. On the same count and under the same terms, for “FIXa-K228N/K247N/N249S/R318Y/T343R/R403E/E410N (from UniProt P00740 47-191; P00740 227-461) (enzyme)” the value was 17000 M⁻¹ s⁻¹; for “FIXa-K228N/R318Y/R338E/T343R/R403E/E410N (from UniProt P00740 47-191; P00740 227-461) (enzyme)”, 7100 M⁻¹ s⁻¹; for “FIXa-K247N/N249S/R318Y/R338E/T343R (from UniProt P00740 47-191; P00740 227-461) (enzyme)”, 320000 M⁻¹ s⁻¹. Still for that read-out and setting: as for “FIXa-K247N/N249S/R318Y/R338E/T343R/E410N (from UniProt P00740 47-191; P00740 227-461) (enzyme)”, the figure is 210000 M⁻¹ s⁻¹; as for “FIXa-K247N/N249S/R318Y/T343R/E410N (from UniProt P00740 47-191; P00740 227-461) (enzyme)”, 49000 M⁻¹ s⁻¹.

As for “FIXa-K247N/N249S/R318Y/T343R/R403E (from UniProt P00740 47-191; P00740 227-461) (enzyme)”, the kapp (apparent second-order rate constant for inhibition) is 9800 M⁻¹ s⁻¹.

Turning to “FIXa-K247N/N249S/R318Y/T343R/R403E/E410N (from UniProt P00740 47-191; P00740 227-461) (enzyme)”, the kapp (apparent second-order rate constant for inhibition) was 25000 M⁻¹ s⁻¹. Same read-out and setting: for “FIXa-K247N/N249S/R338E/T343R/E410N (from UniProt P00740 47-191; P00740 227-461) (enzyme)” the value was 1.4e+07 M⁻¹ s⁻¹. For the substance “FIXa-K247N/N249S/R338E/T343R/R403E (from UniProt P00740 47-191; P00740 227-461) (enzyme)”, the kapp (apparent second-order rate constant for inhibition) was 50000 M⁻¹ s⁻¹. As to “FIXa-R318Y/R338E/T343R (from UniProt P00740 47-191; P00740 227-461) (enzyme)”, the kapp (apparent second-order rate constant for inhibition) was determined as 1.8e+06 M⁻¹ s⁻¹.

Consider “FIXa-R318Y/T343R/E410N (from UniProt P00740 47-191; P00740 227-461) (enzyme)”, for which the kapp (apparent second-order rate constant for inhibition) was found to be 1.2e+06 M⁻¹ s⁻¹. Turning to “FIXa-R338E/T343R/E410N (from UniProt P00740 47-191; P00740 227-461) (enzyme)”, the kapp (apparent second-order rate constant for inhibition) is 2e+07 M⁻¹ s⁻¹. Same read-out and setting: as for “FIXa-Y155F/K247N/N249S/R318Y/R338E/T343R (from UniProt P00740 47-191; P00740 227-461) (enzyme)”, the figure is 370000 M⁻¹ s⁻¹; as for “FIXa-Y155F/K247N/N249S/R318Y/T343R/E410N (from UniProt P00740 47-191; P00740 227-461) (enzyme)”, 360000 M⁻¹ s⁻¹; as for “FIXa-Y155F/K247N/N249S/R318Y/T343R/R403E (from UniProt P00740 47-191; P00740 227-461) (enzyme)”, 12000 M⁻¹ s⁻¹. Take “FIXa-Y155F/K247N/N249S/R318Y/T343R/R403E/E410N (from UniProt P00740 47-191; P00740 227-461) (enzyme)”: the kapp (apparent second-order rate constant for inhibition) turned out to be 28000 M⁻¹ s⁻¹. On to “FIXa-Y155F/K247N/N249S/R338E/E410N (from UniProt P00740 47-191; P00740 227-461) (enzyme)”, for which the kapp (apparent second-order rate constant for inhibition) turned out to be 2.9e+06 M⁻¹ s⁻¹. On the same count and under the same terms, for “FIXa-Y155F/K247N/N249S/R338E/T343R/R403E (from UniProt P00740 47-191; P00740 227-461) (enzyme)” the value was 44000 M⁻¹ s⁻¹.

Consider “FIXa-Y155F/K247N/N249S/R403E/E410N (from UniProt P00740 47-191; P00740 227-461) (enzyme)”, for which the kapp (apparent second-order rate constant for inhibition) came out at 130000 M⁻¹ s⁻¹. Turning to “FIXa-Y155F/K247N/N249S/T343R/R403E/E410N (from UniProt P00740 47-191; P00740 227-461) (enzyme)”, the kapp (apparent second-order rate constant for inhibition) was found to be 620000 M⁻¹ s⁻¹.

Turning to “FIXa-Y155F/R318Y/T343R/E410N (from UniProt P00740 47-191; P00740 227-461) (enzyme)”, the kapp (apparent second-order rate constant for inhibition) was 200000 M⁻¹ s⁻¹. In the case of “FIXa-Y155F/R318Y/T343R/R403E (from UniProt P00740 47-191; P00740 227-461) (enzyme)”, the kapp (apparent second-order rate constant for inhibition) came out at 11000 M⁻¹ s⁻¹.

“FIXa-Y155F/R338E/T343R/E410N (from UniProt P00740 47-191; P00740 227-461) (enzyme)”: the kapp (apparent second-order rate constant for inhibition) turned out to be 1.3e+07 M⁻¹ s⁻¹.

As to “FIXa-Y155F/T343R/R403E/E410N (from UniProt P00740 47-191; P00740 227-461) (enzyme)”, the kapp (apparent second-order rate constant for inhibition) stood at 880000 M⁻¹ s⁻¹.

A further assay concerns the target antithrombin III (plasma purified human AT-III), in complex with unfractionated heparin (human) (UniProt P01008). Description: AT-III/UFH inhibition of FIXa; residual activity on Pefafluor FIXa substrate, varied incubation time.
On to “FIXa D104N/K106S/Y155F/R318Y/R338E/R403E/E410N (from UniProt P00740 47-191; P00740 227-461) (enzyme)”, for which the kapp (apparent second-order rate constant for inhibition) amounted to 2900 M⁻¹ s⁻¹. The same measure, in the same setting: for “FIXa D203N/F205T/R318Y/E410N (from UniProt P00740 47-191; P00740 227-461) (enzyme)” the value was 53000 M⁻¹ s⁻¹. In the case of “FIXa I251S/R318Y/R338E/E410N (from UniProt P00740 47-191; P00740 227-461) (enzyme)”, the kapp (apparent second-order rate constant for inhibition) was 240000 M⁻¹ s⁻¹. Take “FIXa I251S/R318Y/R338E/R403E/E410N (from UniProt P00740 47-191; P00740 227-461) (enzyme)”: the kapp (apparent second-order rate constant for inhibition) is 3000 M⁻¹ s⁻¹.

As for “FIXa K228N/R318Y/E410N (from UniProt P00740 47-191; P00740 227-461) (enzyme)”, the kapp (apparent second-order rate constant for inhibition) came to 1.9e+06 M⁻¹ s⁻¹. Consider “FIXa K228N/R318Y/R338E/R403E/E410N (from UniProt P00740 47-191; P00740 227-461) (enzyme)”, for which the kapp (apparent second-order rate constant for inhibition) came out at 2900 M⁻¹ s⁻¹. In the case of “FIXa K247N/N249S/R318Y/R338E/E410N (from UniProt P00740 47-191; P00740 227-461) (enzyme)”, the kapp (apparent second-order rate constant for inhibition) was found to be 860000 M⁻¹ s⁻¹. In the case of “FIXa K247N/N249S/R318Y/R338E/R403E/E410N (from UniProt P00740 47-191; P00740 227-461) (enzyme)”, the kapp (apparent second-order rate constant for inhibition) stood at 2000 M⁻¹ s⁻¹.

Regarding “FIXa N346Y (from UniProt P00740 47-191; P00740 227-461) (enzyme)”, the kapp (apparent second-order rate constant for inhibition) turned out to be 840000 M⁻¹ s⁻¹.

Consider “FIXa R318Y/R338E (from UniProt P00740 47-191; P00740 227-461) (enzyme)”, for which the kapp (apparent second-order rate constant for inhibition) was 620000 M⁻¹ s⁻¹. Consider “FIXa R318Y/R338E/R403E/E410S (from UniProt P00740 47-191; P00740 227-461) (enzyme)”, for which the kapp (apparent second-order rate constant for inhibition) is 1600 M⁻¹ s⁻¹.

On to “FIXa R318Y/R403E/E410N (from UniProt P00740 47-191; P00740 227-461) (enzyme)”, for which the kapp (apparent second-order rate constant for inhibition) worked out at 28000 M⁻¹ s⁻¹. Same read-out and setting: for “FIXa T343Q (from UniProt P00740 47-191; P00740 227-461) (enzyme)” the value was 2.1e+06 M⁻¹ s⁻¹. The same measure, in the same setting: for “FIXa T343R (from UniProt P00740 47-191; P00740 227-461) (enzyme)” the value was 4.2e+06 M⁻¹ s⁻¹. For the substance “FIXa T343R/Y345T (from UniProt P00740 47-191; P00740 227-461) (enzyme)”, the kapp (apparent second-order rate constant for inhibition) was determined as 5e+06 M⁻¹ s⁻¹. On to “FIXa Y155F/K228N/R318Y/R338E/R403E/E410N (from UniProt P00740 47-191; P00740 227-461) (enzyme)”, for which the kapp (apparent second-order rate constant for inhibition) worked out at 4600 M⁻¹ s⁻¹. For the substance “FIXa Y155F/K247N/N249S/R318Y/R338E/E410N (from UniProt P00740 47-191; P00740 227-461) (enzyme)”, the kapp (apparent second-order rate constant for inhibition) stood at 180000 M⁻¹ s⁻¹. Consider “FIXa Y155F/K247N/N249S/R318Y/R338E/R403E/E410N (from UniProt P00740 47-191; P00740 227-461) (enzyme)”, for which the kapp (apparent second-order rate constant for inhibition) was 1600 M⁻¹ s⁻¹.

For “FIXa Y155F/N346D (from UniProt P00740 47-191; P00740 227-461) (enzyme)”, the kapp (apparent second-order rate constant for inhibition) is 4e+06 M⁻¹ s⁻¹. Still for that read-out and setting: as for “FIXa Y155F/R318Y/R338E/E410N (from UniProt P00740 47-191; P00740 227-461) (enzyme)”, the figure is 450000 M⁻¹ s⁻¹; as for “FIXa Y155F/R318Y/R403E/E410N (from UniProt P00740 47-191; P00740 227-461) (enzyme)”, 8100 M⁻¹ s⁻¹. The same measure, in the same setting: as for “FIXa Y345T (from UniProt P00740 47-191; P00740 227-461) (enzyme)”, the figure is 1.8e+06 M⁻¹ s⁻¹.
